Results published in publication PMC5127646, “Structural basis for the recognition of spliceosomal SmN/B/B’ proteins by the RBM5 OCRE domain in splicing regulation” (eLife, 2016).
Changes are numbered by the printed parent chain. Names may count otherwise.

B1: SmN peptide, residues 219-229 (GMRPPPPGIRG) (peptide)
peptide: GMRPPPPGIRG
notes: source: synthetic peptide (Peptide Specialty Laboratory, Heidelberg)
B2: RBM5 OCRE domain (451-511) Y495A (domain or fragment, human)
chain: GAMGTKYAVPDTSTYQYDESSGYYYDPTTGLYYDPNSQYYYNSLTQQALYWDGEKETYVPAAES
notes: tripeptide left by the TEV cleavage; RBM5, human, OCRE domain, residues 451-511; source: E. coli BL21, purified (Ni-NTA, TEV cleavage, gel filtration); not shown: His6, N-terminal, cleaved
B3: RBM5 OCRE domain (451-511) E501K (domain or fragment, human)
chain: B2 chain with A48Y, E54K
notes: as for B2
B4: RBM5 OCRE domain (451-511) Y454A/D458K (domain or fragment, human)
chain: B2 chain with Y7A, D11K, A48Y
notes: as for B2
B5: RBM5 OCRE domain (451-511) Y479A (domain or fragment, human)
chain: B2 chain with Y32A, A48Y
notes: as for B2
B6: RBM5 OCRE domain (451-511) Y486A (domain or fragment, human)
chain: B2 chain with Y39A, A48Y
notes: as for B2
B7: RBM5 OCRE domain (451-511) Y488A (domain or fragment, human)
chain: B2 chain with Y41A, A48Y
notes: as for B2
B8: RBM5 OCRE domain (451-511) Y495F (domain or fragment, human)
chain: B2 chain with A48F
notes: as for B2
B9: RBM5 OCRE domain (451-511) Y495T (domain or fragment, human)
chain: B2 chain with A48T
notes: as for B2
B10: RBM5 OCRE domain (451-511) Y495W (domain or fragment, human)
chain: B2 chain with A48W
notes: as for B2
B11: RBM5 OCRE domain (residues 451-511), wild type (domain or fragment, human)
chain: B2 chain with A48Y
notes: tripeptide left by the TEV cleavage; 15N- or 13C,15N-labelled in the NMR experiments; also called RBM5_OCRE WT; source: E. coli BL21, purified (Ni-NTA, TEV cleavage, gel filtration); not shown: His6, N-terminal, cleaved
B12: SmN 167-240 4P→4A (domain or fragment)
chain: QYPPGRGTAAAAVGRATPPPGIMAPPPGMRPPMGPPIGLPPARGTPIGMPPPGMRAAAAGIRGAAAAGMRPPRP
B13: SmN 167-240 4P/3P→4A/3A (domain or fragment)
chain: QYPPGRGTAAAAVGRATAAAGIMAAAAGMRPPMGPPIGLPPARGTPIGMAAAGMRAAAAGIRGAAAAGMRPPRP
B14: SmN 167-240 4P/3P→4G/3G (domain or fragment)
chain: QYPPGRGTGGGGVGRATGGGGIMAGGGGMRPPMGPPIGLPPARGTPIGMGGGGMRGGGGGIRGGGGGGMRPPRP
B15: SmN residues 167-196 (domain or fragment)
chain: not shown
notes: source: E. coli BL21, purified (Ni-NTA, TEV cleavage, gel filtration); not shown: His6, N-terminal, cleaved; GST, N-terminal, cleaved

Target: B11
Assay: NMR structure; solution structure; 2 mM ^13C,^15N-labeled OCRE with 14 mM unlabeled SmN 219-229 peptide, 298 K; 109 intermolecular NOE restraints
Settings: both partners purified

Binder	binding result
B1	binds

Target: T1, SmN C-terminal tail, residues 167-240 (complete proline-rich region), wild type (human, UniProt P63162 167-240)
T1 construct: The ITC methods print 168-240 for this construct; also called SmN_167-240 WT; source: E. coli BL21, purified (Ni-NTA, TEV cleavage, gel filtration); not shown: His6, N-terminal, cleaved; GST, N-terminal, cleaved
Assay: ITC; purified OCRE mutants (2 mM) titrated to wild type SmN (29.5 μM); ITC200, 24°C, 20 mM sodium phosphate pH 6.5, 50 mM NaCl; duplicates
Settings: both partners purified

Binder	Kd
B2	172 µM
B3	48 µM
B4	106 µM
B5	111 µM
B6	145 µM
B7	220 µM
B8	87 µM
B9	186 µM
B10	35 µM

Target: T2, SmB C-terminal region, residues 167-231, wild type (human, UniProt P14678-2 167-231)
T2 construct: source: E. coli BL21, purified (Ni-NTA, TEV cleavage, gel filtration); not shown: His6, N-terminal, cleaved; GST, N-terminal, cleaved
Assay: ITC; Sm tail constructs with wild type OCRE; SmN constructs (1 mM) titrated into OCRE (100 μM); ITC200, 24°C, 20 mM sodium phosphate pH 6.5, 50 mM NaCl; duplicates
Settings: both partners purified

Binder	Kd
B11	21 µM

Target: T1, SmN C-terminal tail, residues 167-240 …
Assay: as above
Settings: both partners purified

Binder	Kd
B11	41 µM

Target: B11
Assay: as above
Settings: both partners purified

Binder	Kd
B12	29 µM
B13	103 µM
B14	192 µM
B15	195 µM
